Test results as given in the nanobody polyreactivity screen of Harvey et al. (2022).

Assay: yeast display, Sf9 membrane polyspecificity reagent, FACS + sequencing; frameworks hold sequencing errors
Summary of the method: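 A synthetic nanobody library was expressed on Saccharomyces cerevisiae BJ5465 by galactose induction for 36–48 hours. The library was stained for 1 hour at 4 °C with 10% biotinylated, detergent-solubilized Sf9 membrane reagent and enriched with streptavidin microbeads before FACS. Low and high (top ~1%) gates were set on anti-HA fluorescence for expression and streptavidin fluorescence for reagent binding, and each polyreactivity label reflects the gate of origin.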

Row | Sequence | polyreactivity (PSR sort gate)
1 | QVQLVESGGGLVQAGGSLRLSCAASGFTFYWNAMGWSRQAPGKERELVAAINGGDSTNYADSVKGRFTISRDNAKNTVYLQMNSLKPEDTAVYYCAAEPSLEAWTAFGSYYWGQGTQVTVSS | low polyreactivity
2 | QVQLVESGGGLVQAGGSLRLSCAASGFTFYWYAMGWYRQAPGKERQLVAAISKTGGSTYYADSVKGRFTISRDNAQKTVYLQMTSLKPEDTAVYYCNADKVATWRTHHDYWGQGTQVTVSS | low polyreactivity
3 | QVQLVESGGGLVQAGGSLRLSCAASGFTFYYNAMGWYRQAPGKERELVAIRFRGGNTYYADSVKGRFTISRDNAKNTVYLQMNSLKPEDTAVYYCNADDRGSTYVDFDYWGQGTQVTVSS | low polyreactivity
4 | QVQLVESGGGLVQAGGSLRLSCAASGFTFYYNAMGWYRQAPGKERELVAIRFRGGNTYYADSVKGRFTISRDNAKNTVYLQMNSLKPEDTAVYYCNADDRGSTYVEFDYWGQGTQVTVSS | low polyreactivity
5 | QVQLVESGGGLVQAGGSLRLSCAASGFTFYYYAMGWSRQAPGKERELVAAISTRDGNTYYADSVKGRFTISRDNAKNTVYLQRNSLKPEDTAVYYCAADYFRYYPYDYWGQGTQVTVSS | low polyreactivity
6 | QVQLVESGGGLVQAGGSLRLSCAASGFTFYYYAMGWYRQAPGKERELVAAIDTGGSTNYADSVKGRFTISRDNAKNTVYLQMNSLKPEDTAVYYCNADTPDHYGHYDYWGQGTQVTVSS | low polyreactivity
7 | QVQLVESGGGLVQAGGSLRLSCAASGFTFYYYAMGWYRQAPGKERELVAAISSSGVRTYYADSVKGRFTISRDNAKNTVYLQMKSLKPEDTAVYYCATVGRGFPSVELDYWGQGTQVTVSS | high polyreactivity
8 | QVQLVESGGGLVQAGGSLRLSCAASGFTFYYYAMGWYRQAPRKERQLVAAFSWSGGSTYYADSVKGRFTISRDYAKNTVYLQMNRLKPVDTAVYYCNAYPGYRSRSDYGYWGQGTQVTVSS | high polyreactivity
9 | QVQLVESGGGLVQAGGSLRLSCAASGFTFYYYTMGWYRQAPGKEMELVADISSGDRTYYADSVKGRFTISRDNAKNTVYLQMNSLKPEDTAVYYCAAPAKYYTRFGHYILNQDYDSWGQGTQVTVSS | low polyreactivity
10 | QVQLVESGGGLVQAGGSLRLSCAASGFTIADYAMGWYRQAPGKERELVAAITYSGGSTYYADSVKGRFTISRDNAKNTVYLQMNSLKPEDTAVYYWNADYASQSGYDYWGQGTQVTVSS | low polyreactivity
11 | QVQLVESGGGLVQAGGSLRLSCAASGFTIAGYAMGWYRQAPWKERELVAAISRGGITYYADSVKGRFTISRDNAKNTVYLQMNSLKPEDTAVYYCAAGKRWSTKYGYWGQGTQVTVSS | high polyreactivity
12 | QVQLVESGGGLVQAGGSLRLSCAASGFTIASNDMGWYRQAPGKERELVAAITKGGGRTYYADSVKGRFTISRDNAKNTVYLQMNSLKPEDTAVYYCAARQLIKYDYWGQGTQVTVSS | low polyreactivity
13 | QVQLVESGGGLVQAGGSLRLSCAASGFTIDTYAMGWYRQAPGKERELVAGISWSGGSTYYADSVKGRFTISRDNAKNTVYLQMNSLKPEDTAVYYCARTARRRYQPYEYWGQGTQVTVSS | low polyreactivity
14 | QVQLVESGGGLVQAGGSLRLSCAASGFTIGYYAMGWYRQAPGKERELDAAISSGGGSTKYADSVKGRFTISRDNAKNTVYLQMNSLKPVDTAVYYFAKSRLVRGRSSYDYWGQGSQVTVSS | high polyreactivity
15 | QVQLVESGGGLVQAGGSLRLSCAASGFTIGYYAMGWYRQAPGKERELVAAISWSGGRTYYAYSVKGRFTISRDNAKNTVYLQMNSLKPEDTAVYYCAADGQQTYSGYDYWGQGTQVTVSS | high polyreactivity
16 | QVQLVESGGGLVQAGGSLRLSCAASGFTIHYYVMVWYRQAPGKERELVAAIRRGGSTSYADSVKGRFTISRDNAKNTVYLQMNSLKPEDTAVYYCAASYVSGERYDYWGQGTQVTVSS | low polyreactivity
17 | QVQLVESGGGLVQAGGSLRLSCAASGFTIIYYAMGWYRQAPGKERELVAAITDSGGSTYYADSVKGRFTISRDNAKNTVYLQMNSLKPEDTAVYYCAARLTCSRFYYWGQGTQVTVSS | high polyreactivity
